According to patent US20210145944:

Key:
Tau-441 (P301L) = Tau-441 (P301L) (UniProt P10636)
Tau-441 (P301L), sequence (P10636 other isoform, or with tags, fused parts or gaps P301L): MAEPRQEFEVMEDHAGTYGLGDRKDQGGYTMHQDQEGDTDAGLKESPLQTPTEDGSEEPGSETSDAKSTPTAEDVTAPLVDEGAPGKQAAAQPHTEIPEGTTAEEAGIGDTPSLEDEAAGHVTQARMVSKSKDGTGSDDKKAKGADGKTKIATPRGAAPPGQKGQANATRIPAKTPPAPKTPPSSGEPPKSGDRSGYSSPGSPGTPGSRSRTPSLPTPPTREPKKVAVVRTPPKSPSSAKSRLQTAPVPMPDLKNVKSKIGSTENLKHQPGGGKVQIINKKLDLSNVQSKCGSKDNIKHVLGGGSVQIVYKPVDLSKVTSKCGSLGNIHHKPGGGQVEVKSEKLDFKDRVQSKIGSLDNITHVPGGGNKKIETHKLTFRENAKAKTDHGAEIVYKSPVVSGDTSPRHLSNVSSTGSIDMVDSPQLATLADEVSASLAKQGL

B1: cathepsin G (enzyme, UniProt P08311 21-244, looked up, species assumed)
Cathepsin G: IIGGRESRPHSRPYMAYLQIQSPAGQSRCGGFLVREDFVLTAAHCWGSNINVTLGAHNIQRRENTQQHITARRAIRHPQYNQRTIQNDIMLLQLSRRVRRNRNVNPVALPRAQEGLRPGTLCTVAGWGRVSMRRGTDTLREVQLRVQRDRQCLRIFGSYDPRRQICVGDRRERKAAFKGDSGGPLLCNNVAHGIVSYGKSSGVPPEVFTRVSSFLPWIRTTMRS
modifications: immobilized
**Q.** How did the “digestion on immobilized protease column, SDS-PAGE silver stain (FIG. 3A)” value (Tau-441 (P301L)) turn out when B1 was run?
**A.** Its value is “rapidly degraded”.

**Q.** And the “loss of the Tau-441 (P301L) band on a silver-stained SDS-PAGE gel after incubation on the protease column” value (Tau-441 (P301L))?
**A.** Its value is “no band in the Cathepsin G column lanes at 2, 10 and 20 min; the No protease column lanes show a strong band of equal strength at 2, 10 and 20 min”.

**Q.** And the “casein digestion by resin-immobilized protease, fluorescence (RFU) at 5 and 60 min” value (Bodipy-labelled casein)?
**A.** The value was “bar at 5 min about 2.3x10^7 RFU, bar at 60 min about 5.3x10^7 RFU; highest of the three groups; no control bar drawn”.

**Q.** And the “casein digestion, fluorescence (RFU) of Bodipy-labelled casein after 1 h against protease concentration in solution” value (Bodipy-labelled casein)?
**A.** Its value is “near 0 up to about 0.1 ug/ml, rises to about 3.4x10^7 RFU; the last two points (about 50 and 100 ug/ml) are at the same height”.

**Q.** What about the “casein-digestion activity, immobilized protease, fluorescence” value (Bodipy-labelled casein) of the same protein?
**A.** Its value is “exhibited casein-digestion activity at 5 minute and 60 minute incubation times”.

**Q.** What about the “casein-digestion activity, protease in solution, fluorescence” value (Bodipy-labelled casein) of the same protein?
**A.** The value was “exhibited casein-digestion activity having linear reaction kinetics up to approximately 6 µg/ml of each protease”.
